The record followed here is patent US11833215B2, “CKIT antibody drug conjugates” (Novartis AG, priority 2014, dated 2023).

For experiment [1], the system named is surface cKIT on GIST-T1 cells. The experiment is described as follows: cKIT Ab-mediated internalization by flow cytometry. The experiment is classed as cell-based. The settings on record: 10 μg/ml, 37° C., 30 min to 24 hr. As to the method:
The kinetics of cKIT antibody mediated internalization was evaluated by treating with antibody in a cell monolayer using a temperature shift method and flow cytometry readout. GIST-T1 (kindly provided by Dr. Takahiro Taguchi, Kochi U., Japan) cells were seeded at 2.5×10E5 cells/well in five 12-well tissue culture treated plates (BD Falcon 353043). The cells were incubated in a tissue culture incubator at 37° C. with 5% CO2 overnight. The following day medium was removed and replaced with 450 μl fresh medium. The cKIT antibodies NEG085, 20376 and an isotype control were prepared at 10×10 μg/ml concentration in appropriate cell culture medium and 50 μl of test cKIT antibody or isotype was added per well with final concentration of 10 μg/ml. All cells were incubated for 1 hr on ice, followed by two washes with 1 mL 1× Phosphate buffered saline (PBS) and resuspended in 500 μl cell culture medium. […] The following day, all samples were analyzed using the BD FACSCanto II 0 equipment using a HTS system (BD Biosciences, San Jose, CA). Samples were analyzed with FlowJo software to obtain the Geometric Mean values of fluorescence for the Phycoerythrin channel, FIG. 4A is a plot of % of initial cell surface binding vs Geometric Mean-PE 4° C. binding/Geometric Mean-PE timepoint at 37° C.×100.
On the technique in general: A flow cytometer gives signals particle by particle.

The target of experiment [2] is T1, Human cKIT D1-D3 ECD (Homo sapiens, UniProt P10721, N130S/N145S).
T1 construct: protein was made with residues Q26-G311; made in house
The experiment is described as follows: crystal structure of cKIT ECD/NEG085 Fab complex. As to the method: Human cKIT (accession code NM_000222 domain 1 (D1)-domain 3 (D3) extracellular domain (ECD) protein was made with residues Q26-G311 ([…], N145S- these changes results in glycosylation deficiency, in order to express the protein in a glycan free form). Equal molar ratios of human cKIT D1-D3 ECD and NEG085 Fab were mixed and subjected to a final gel filtration step equilibrated with 20 mM Tris-HCl pH 7.5 and 100 mM NaCl, and concentrated to 20 mg/ml. Trypsin was added to the protein complex crystallization sample to create a 1:100 w/w dilution. The protease/sample mixture was incubated at room temperature for 30 minutes before setting up the crystallization experiment.
Diffracting crystals of the cKIT ECD/NEG085 Fab complex were obtained directly from Protein Complex Suite F5 (0.1M NaCl, 0.1M Tris pH 8.0, 8% PEG 20 k; Qiagen) at 4° C. and, after minor optimization, led to crystals diffracting to 5 Å in-house. […]
Data were collected on a single crystal cooled to 100K using an ADSC QUANTUM 315 detector (ADSC, Poway CA) and synchrotron radiation (λ=1.0000 Å) at the beam line 5.0.2 of the Advanced Light Source. […] The crystal contains four copies of the cKIT ECD/NEG085 Fab complex in the asymmetric unit with a calculated solvent content of 66%. […]

“Also recorded” adds a separate entry of the source.

T1 sequence (P10721 26-311 N130S/N145S limits assumed): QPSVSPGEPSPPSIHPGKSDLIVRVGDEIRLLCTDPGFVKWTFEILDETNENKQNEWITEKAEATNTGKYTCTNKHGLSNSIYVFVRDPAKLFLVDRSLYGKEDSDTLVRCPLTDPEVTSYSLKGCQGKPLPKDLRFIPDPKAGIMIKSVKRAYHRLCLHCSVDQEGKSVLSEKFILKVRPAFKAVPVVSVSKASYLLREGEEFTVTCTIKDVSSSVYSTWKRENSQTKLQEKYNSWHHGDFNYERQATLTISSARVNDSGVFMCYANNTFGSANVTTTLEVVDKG

B1: NEG085: anti-cKIT antibody of Table 3, VH SEQ ID NO 82, VL SEQ ID NO 91 (antibody, listed as Homo sapiens, V domains shown)
VH: EVQLVESGGGLVQPGGSLRLSCAASGFAFSGYYMAWVRQAPGKGLEWVANINYPGSSTYYLDSVKGRFTISRDNAKNSLYLQMNSLRAEDTAVYYCARGDYYGTTYWYFDVWGQGTTVTVSS
VL: DIQMTQSPSSLSASVGDRVTITCRASQSISSYLNWYQQKPGKAPKLLIYYTSRLQSGVPSRFSGSGSGTDFTLTISSLQPEDFATYYCQQGRRLWSFGGGTKVEIK
In the case of B1, the “internalization of surface cKIT on GIST-T1 cells” value in experiment [1] is “mediate rapid internalization; also recorded: rapidly internalized”. The “competition with SCF for binding to cKIT (superposition of structures)” value in experiment [2] is given as “appear to not compete”. The “solvent-accessible surface area buried by NEG085/cKIT interface” value in experiment [2] (total, H and L chain) is given as approximately 1890 Å2.
